This passage reports protein stability index results from the supplement of paper PMC10724198.

± gives the standard deviation of the averaged measurements.
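Also: PSI is a weighted mean of sequencing reads over stability bins, variants kept only with over 10 reads, mCherry proximal and sfGFP distal, peptide attached via GGGS linker.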

The test system of this series is Saccharomyces cerevisiae. The series is described as follows: protein stability index of tFT-peptide fusion (C-terminal peptide) (PSI (0-1 scale)); higher = more stable (slower turnover). The conditions noted are these: genetic background: wild type; temperature: 30 C.
As for RERASCHSHTNS, the protein stability index worked out at 0.675 ± 0.013. As for RERKEVGRRRIG, the protein stability index is 0.604 ± 0.022. RESSAYPPPGEG yielded a protein stability index of 0.6551 ± 0.005. With RESTGRDQRGIV the figure was 0.673 ± 0.018. Next, RESVLRVGCFQP: 0.742 ± 0.072; RFCGSGPIVPGQ: 0.707 ± 0.019.

On to RFETKERGIREK, for which the protein stability index was 0.719 ± 0.014. With RFGCGRRGQWMR the figure was 0.722 ± 0.06. Next, RFGHLLRFSWLL: 0.6477 ± 0.0057. Next, RFGLIFTSPHPL: 0.63 ± 0.013; RFLEKNKKVIDK: 0.742 ± 0.037; RFLVFLLNFISI: 0.564 ± 0.037. The sequence RFMDPFSGITAF showed a protein stability index of 0.716 ± 0.018. For RFVGVGWRVEGG, the protein stability index was 0.676 ± 0.019. Sequence RGALGGGSNRLA displayed a protein stability index of 0.788 ± 0.26. With RGARWRAGIGRG the figure was 0.739 ± 0.088; with RGCGRLDGRRGG, 0.704 ± 0.015.

RGCTVHSLNSSY yielded a protein stability index of 0.6757 ± 0.0022. With RGCVKQGLYCVL the figure was 0.679 ± 0.044.

RGDIQASKRIHL returned a protein stability index of 0.752 ± 0.046. In the case of RGDVGVGHWVGG, the protein stability index worked out at 0.708 ± 0.0093. Next, RGEGLRYVQGSR: 0.668 ± 0.042; RGFWRGGVVRGG: 0.73 ± 0.021. Turning to RGGGRGGRPRMC, the protein stability index was found to be 0.607 ± 0.085. On to RGGPTRVSLPPR, for which the protein stability index was determined as 0.654 ± 0.016.

RGGRGLAAGAWW had a protein stability index of 0.7035 ± 0.0055. With RGGVGLEGEGGE the figure was 0.615 ± 0.026. RGGVRGAIHSDL displayed a protein stability index of 0.7039 ± 0.0025. For the sequence RGHKHSNNVSRR, the protein stability index came out at 0.696 ± 0.019. With RGKKGQKEPAEK the figure was 0.688 ± 0.048. RGLSGSHRAGIV: the protein stability index was found to be 0.69334 ± 0.00034.

In the case of RGPPMPGRRGRA, the protein stability index came out at 0.7 ± 0.052. For RGPPRRLQCLGR, the protein stability index was 0.7121 ± 0.003. With RGPRVVYYRLYV the figure was 0.722 ± 0.12; with RGRDLSLCQFFY, 0.7364 ± 0.0024; with RGRPEVRPPGHY, 0.707 ± 0.03. Next, RGSILTTVNPPR: 0.75 ± 0.13. Next, RGSSWSRVAGDG: 0.631 ± 0.063; RGTGRLDRLGLR: 0.662 ± 0.043; RGVCGVGLYTGG: 0.657 ± 0.02.

RGVGCDMGGDGG: the protein stability index is 0.65 ± 0.042. RGVGLGRWGPVV gave a protein stability index of 0.652 ± 0.0081. With RGVGVRYGVARR the figure was 0.6695 ± 0.006.

RGVTEYDSGSSL had a protein stability index of 0.647 ± 0.045. With RGWVAGGSSAWS the figure was 0.673 ± 0.054; with RGWVGGGSSAWS, 0.651 ± 0.024; with RGWWVLCGGGWG, 0.567 ± 0.026. With RHAVNAQPVARP the figure was 0.647 ± 0.036; with RHHRACLNTRLG, 0.671 ± 0.065. RHISRIYVERRY displayed a protein stability index of 0.695 ± 0.02. Next, RHRGVYMDRGCL: 0.663 ± 0.053.

RHRPLPETDLAS displayed a protein stability index of 0.708 ± 0.016.

As to RHSSRYLIEFDN, the protein stability index came to 0.744 ± 0.03. For RHYGRSLRLIKT, the protein stability index was found to be 0.59 ± 0.011. With RHYLWAECGSSE the figure was 0.709 ± 0.017; with RIALWPTSMPAL, 0.684 ± 0.041. RIAWTKEKMGKT yielded a protein stability index of 0.661 ± 0.024. As to RIDHYIFYVNAV, the protein stability index came to 0.675 ± 0.017. As to RIFSPVFLSMSV, the protein stability index is 0.649 ± 0.018. The sequence RIGKKKRYNEKS had a protein stability index of 0.751 ± 0.062.

RIINRATIIIKL returned a protein stability index of 0.564 ± 0.0065. Next, RIKEYITDEKNR: 0.674 ± 0.056. Next, RINIDLKKIAKK: 0.689 ± 0.05; RIRGPECDLWFR: 0.707 ± 0.019; RIRTLASRRLEG: 0.709 ± 0.1. Next, RISIHGECHFHK: 0.654 ± 0.014; RIVVDIYANRRG: 0.689 ± 0.02; RKDDRPYIRETS: 0.701 ± 0.016. As to RKDKKKKGSKEE, the protein stability index was determined as 0.69 ± 0.046. Consider RKEQEDVHNKKK, for which the protein stability index worked out at 0.671 ± 0.051. Next, RKEVKAWKTTDI: 0.694 ± 0.013; RKKKKKKENKRR: 0.754 ± 0.054.

RKKKKKKKKKSN displayed a protein stability index of 0.631 ± 0.089. Next, RKKQKKQKKKKG: 0.682 ± 0.0092; RKKRFENKKEKY: 0.731 ± 0.057. With RKNHKKNHKTRI the figure was 0.65 ± 0.087; with RKNKQVDLCHRE, 0.676 ± 0.037. With RKSRKPNSEPKR the figure was 0.717 ± 0.0072; with RKSTVILLLTDT, 0.668 ± 0.054; with RKTKKEEKTKRN, 0.719 ± 0.2.
